# Article PMC11032447 (2024)
# Numbering of substitutions follows the chain as printed.
# T1: mouse secretagogin V233A (mouse, UniProt Q91WD9 1-276, V233A)
# T1 sequence: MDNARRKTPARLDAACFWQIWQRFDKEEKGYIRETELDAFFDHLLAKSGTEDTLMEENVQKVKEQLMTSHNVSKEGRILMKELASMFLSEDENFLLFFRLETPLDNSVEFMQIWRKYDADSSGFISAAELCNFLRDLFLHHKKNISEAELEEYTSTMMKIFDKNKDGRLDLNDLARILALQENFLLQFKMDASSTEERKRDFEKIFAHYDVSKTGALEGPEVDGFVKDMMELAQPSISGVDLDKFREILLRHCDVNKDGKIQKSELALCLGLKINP
# T2: mouse secretagogin M229E (mouse, UniProt Q91WD9 1-276, M229E)
# T2 sequence: T1 sequence with M229E, A233V
# T3: mouse secretagogin M229A (mouse, UniProt Q91WD9 1-276, M229A)
# T3 sequence: T1 sequence with M229A, A233V
# T4: mouse secretagogin R198A (mouse, UniProt Q91WD9 1-276, R198A)
# T4 sequence: T1 sequence with R198A, A233V
# B1: helix-b of the Habc domain of mouse syntaxin-4 (domain or fragment)
# chain: TPLPEESMKQGLQNLREEIKQLGREVRAQLKAIEPQKE
# B2: mouse secretagogin (natural protein)
# chain: T1 sequence with A233V
# Experiments:
# Test in all cases: ITC
# mouse secretagogin V233A = target: T1, mouse secretagogin V233A
# mouse secretagogin M229E = target: T2, mouse secretagogin M229E
# mouse secretagogin M229A = target: T3, mouse secretagogin M229A
# mouse secretagogin R198A = target: T4, mouse secretagogin R198A
# [1] = target: B1
# [2] = target: C-terminal SNARE domain of mouse SNAP-25 (mouse, UniProt P60879 140-206)
# C-terminal SNARE domain of mouse SNAP-25, sequence (P60879 140-206): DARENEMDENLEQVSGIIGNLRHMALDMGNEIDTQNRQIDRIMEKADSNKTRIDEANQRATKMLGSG
Kd (mouse secretagogin V233A) [µM],Kd (mouse secretagogin M229E) [µM],Kd (mouse secretagogin M229A) [µM],Kd (mouse secretagogin R198A) [µM],Kd [1] [µM],Kd [2] [µM],Binder
0.125,5.21,1.62,0.808,,,B1
,,,,0.407,0.0219,B2
